# Test results published in patent publication US20110300138A1 (published 2011).
# B1: 5C9 IgG (antibody, from another filing, V domains shown)
# VH: EVQLVESGGGLIQPGGSLRLSCAASGFTVSSNYMSWVRQAPGKGLEWVSVTYSGGSTSYADSVKGRFTISRDNSKNTLYLQMNSLRAEDTAVYYCARGGRYCSSISCYARSGCDYWGQGTLVTVSS
# VL: AIQMTQSPSSLSASVGDRVTITCRASQSISNYLNWYQQKPGKAPKLLIYAASSLQSGVPSRFSGSGSGTDFTLTISSLQPEDFATYYCQQSYSSPSTTFGQGTKLEIK
# Columns and labels:
# [1] = biological target: TSHR with Asp160 mutated to Lys, expressed in CHO cells (human) (UniProt P16473); test: cell-based or functional assay
# [2] = biological target: TSHR with Arg255 mutated to Ala, expressed in CHO cells (human) (UniProt P16473); test: cell-based or functional assay
# [3] = biological target: TSHR with Tyr185 mutated to Ala, expressed in CHO cells (human) (UniProt P16473); test: cell-based or functional assay
# [4] = biological target: TSHR with Phe130 mutated to Ala, expressed in CHO cells (human) (UniProt P16473); test: cell-based or functional assay
# [5] = biological target: TSHR with Lys183 mutated to Asp expressed in CHO cells (human) (UniProt P16473); test: cell-based or functional assay
# [6] = biological target: TSHR with Lys250 mutated to Ala (expressed in CHO cells) (human) (UniProt P16473); test: cell-based or functional assay
# [7] = biological target: TSHR with His105 mutated to Ala (expressed in CHO cells) (human) (UniProt P16473); test: cell-based or functional assay
# [8] = biological target: TSHR with Tyr82 mutated to Ala expressed in CHO cells (human) (UniProt P16473); test: cell-based or functional assay
# [9] = biological target: TSHR with Glu251 mutated to Ala (human) (UniProt P16473); test: cell-based or functional assay
# [10] = biological target: TSHR with Ile60 mutated to Ala, expressed in CHO cells (human) (UniProt P16473); test: cell-based or functional assay
# [11] = biological target: TSHR with Lys209 mutated to Ala (expressed in CHO cells) (human) (UniProt P16473); test: cell-based or functional assay
# [12] = biological target: TSH receptor (TSHR) coated on tubes (human) (UniProt P16473); test: inhibition of 125I-K1-70 IgG binding to TSHR coated tubes; sample 0.01 µg/mL in HBD serum pool
# [13] = biological target: human TSH receptor (full length) coated on ELISA plate wells (human) (UniProt P16473); test: TSH-biotin binding inhibition ELISA, TSHR coated wells; 0.01 µg/mL in HBD serum pool
molecule,measurement,setting,value
5B3 IgG (antibody),"% inhibition of TSH stimulation (stimulator given as M22), mutated TSHR; 5B3 10 µg/mL",[1],0%
same,"% inhibition of TSH stimulation (stimulator given as M22), mutated TSHR; 5B3 100 µg/mL",[1],11%
same,Mutated/wild type (%) of cyclic AMP produced; test sample: 5B3 10 µg/mL + M22,[1],69%
same,Mutated/wild type (%) of cyclic AMP produced; test sample: 5B3 100 µg/mL + M22,[1],60%
same,% inhibition of TSH stimulation; 5B3 10 µg/mL,[2],12%
same,% inhibition of TSH stimulation; 5B3 100 µg/mL,[2],2%
same,Cyclic AMP produced; 5B3 10 µg/mL + TSH 3 ng/mL,[2],56.4 pmol/mL
same,Cyclic AMP produced; 5B3 100 µg/mL + TSH 3 ng/mL,[2],62.5 pmol/mL
same,Mutated/wild type (%) of cyclic AMP produced; 5B3 10 µg/mL + TSH 3 ng/mL,[2],75%
same,Mutated/wild type (%) of cyclic AMP produced; 5B3 100 µg/mL + TSH 3 ng/mL,[2],92%
TSH (ligand),"Cyclic AMP produced (pmol/mL), mutated TSHR, TSH 0.01 ng/mL, Experiment 1",[3],3.33 pmol/mL
same,"Cyclic AMP produced (pmol/mL), mutated TSHR, TSH 0.01 ng/mL, Experiment 2",[3],3.82 pmol/mL
same,"Cyclic AMP produced (pmol/mL), mutated TSHR, TSH 0.03 ng/mL, Experiment 1",[3],3.85 pmol/mL
same,"Cyclic AMP produced (pmol/mL), mutated TSHR, TSH 0.03 ng/mL, Experiment 2",[3],5.6 pmol/mL
same,"Cyclic AMP produced (pmol/mL), mutated TSHR, TSH 0.1 ng/mL, Experiment 1",[3],8.36 pmol/mL
same,"Cyclic AMP produced (pmol/mL), mutated TSHR, TSH 0.1 ng/mL, Experiment 2",[3],12.3 pmol/mL
same,"Cyclic AMP produced (pmol/mL), mutated TSHR, TSH 0.3 ng/mL, Experiment 1",[3],21.1 pmol/mL
same,"Cyclic AMP produced (pmol/mL), mutated TSHR, TSH 0.3 ng/mL, Experiment 2",[3],30.5 pmol/mL
same,"Cyclic AMP produced (pmol/mL), mutated TSHR, TSH 1 ng/mL, Experiment 1",[3],37.8 pmol/mL
same,"Cyclic AMP produced (pmol/mL), mutated TSHR, TSH 1 ng/mL, Experiment 2",[3],50.6 pmol/mL
same,"Cyclic AMP produced (pmol/mL), mutated TSHR, TSH 3 ng/mL, Experiment 1",[3],42.9 pmol/mL
same,"Cyclic AMP produced (pmol/mL), mutated TSHR, TSH 3 ng/mL, Experiment 2",[3],56.3 pmol/mL
same,"Mutated/Wild type (%), TSH 0.01 ng/mL, Experiment 1",[3],128%
same,"Mutated/Wild type (%), TSH 0.01 ng/mL, Experiment 2",[3],98%
same,"Mutated/Wild type (%), TSH 0.03 ng/mL, Experiment 1",[3],90%
same,"Mutated/Wild type (%), TSH 0.03 ng/mL, Experiment 2",[3],101%
same,"Mutated/Wild type (%), TSH 0.1 ng/mL, Experiment 1",[3],76%
same,"Mutated/Wild type (%), TSH 0.1 ng/mL, Experiment 2",[3],93%
same,"Mutated/Wild type (%), TSH 0.3 ng/mL, Experiment 1",[3],65%
same,"Mutated/Wild type (%), TSH 0.3 ng/mL, Experiment 2",[3],86%
same,"Mutated/Wild type (%), TSH 1 ng/mL, Experiment 1",[3],45%
same,"Mutated/Wild type (%), TSH 1 ng/mL, Experiment 2",[3],62%
same,"Mutated/Wild type (%), TSH 3 ng/mL, Experiment 1",[3],35%
same,"Cyclic AMP produced, TSH 0.01 ng/mL, mutated TSHR",[4],3.05 pmol/mL
same,"Cyclic AMP produced, TSH 0.03 ng/mL, mutated TSHR",[4],4.12 pmol/mL
same,"Cyclic AMP produced, TSH 0.1 ng/mL, mutated TSHR",[4],9.61 pmol/mL
same,"Cyclic AMP produced, TSH 0.3 ng/mL, mutated TSHR",[4],35.6 pmol/mL
same,"Cyclic AMP produced, TSH 1 ng/mL, mutated TSHR",[4],66.2 pmol/mL
same,"Cyclic AMP produced, TSH 3 ng/mL, mutated TSHR",[4],80.4 pmol/mL
same,"Mutated/Wild type (%), TSH 0.01 ng/mL",[4],134%
same,"Mutated/Wild type (%), TSH 0.03 ng/mL",[4],109%
same,"Mutated/Wild type (%), TSH 0.1 ng/mL",[4],101%
same,"Mutated/Wild type (%), TSH 0.3 ng/mL",[4],124%
same,"Mutated/Wild type (%), TSH 1 ng/mL",[4],86%
same,"Mutated/Wild type (%), TSH 3 ng/mL",[4],86%
same,"Cyclic AMP produced (pmol/mL), mutated TSHR, TSH 0.01 ng/mL",[5],4.08 pmol/mL
same,"Cyclic AMP produced (pmol/mL), mutated TSHR, TSH 0.03 ng/mL",[5],7.18 pmol/mL
same,"Cyclic AMP produced (pmol/mL), mutated TSHR, TSH 0.1 ng/mL",[5],19.1 pmol/mL
same,"Cyclic AMP produced (pmol/mL), mutated TSHR, TSH 0.3 ng/mL",[5],51.7 pmol/mL
same,"Cyclic AMP produced (pmol/mL), mutated TSHR, TSH 1 ng/mL",[5],93.3 pmol/mL
same,"Cyclic AMP produced (pmol/mL), mutated TSHR, TSH 3 ng/mL",[5],106 pmol/mL
same,"Mutated/Wild type (%), TSH 0.01 ng/mL",[5],165%
same,"Mutated/Wild type (%), TSH 0.03 ng/mL",[5],155%
same,"Mutated/Wild type (%), TSH 0.1 ng/mL",[5],109%
same,"Mutated/Wild type (%), TSH 0.3 ng/mL",[5],128%
same,"Mutated/Wild type (%), TSH 1 ng/mL",[5],101%
same,"Mutated/Wild type (%), TSH 3 ng/mL",[5],102%
same,"Cyclic AMP produced, TSH 0.01 ng/mL",[6],8.29 pmol/mL
same,"Cyclic AMP produced, TSH 0.03 ng/mL",[6],12.6 pmol/mL
same,"Cyclic AMP produced, TSH 0.1 ng/mL",[6],28.8 pmol/mL
same,"Cyclic AMP produced, TSH 0.3 ng/mL",[6],66.2 pmol/mL
same,"Cyclic AMP produced, TSH 1 ng/mL",[6],87.9 pmol/mL
same,Cyclic AMP produced; TSH 3 ng/mL,[6],110 pmol/mL
same,"Mutated/Wild type (%) of cyclic AMP produced, TSH 0.01 ng/mL",[6],207%
same,"Mutated/Wild type (%) of cyclic AMP produced, TSH 0.03 ng/mL",[6],189%
same,"Mutated/Wild type (%) of cyclic AMP produced, TSH 0.1 ng/mL",[6],147%
same,"Mutated/Wild type (%) of cyclic AMP produced, TSH 0.3 ng/mL",[6],147%
same,"Mutated/Wild type (%) of cyclic AMP produced, TSH 1 ng/mL",[6],116%
same,Mutated/wild type (%) of cyclic AMP produced; TSH 3 ng/mL,[6],126%
same,"Cyclic AMP produced (pmol/mL), TSH 0.01 ng/mL",[7],4.8 pmol/mL
same,"Cyclic AMP produced (pmol/mL), TSH 0.03 ng/mL",[7],3.55 pmol/mL
same,"Cyclic AMP produced (pmol/mL), TSH 0.1 ng/mL",[7],4.82 pmol/mL
same,"Cyclic AMP produced (pmol/mL), TSH 0.3 ng/mL",[7],11.9 pmol/mL
same,"Cyclic AMP produced (pmol/mL), TSH 1 ng/mL",[7],34.6 pmol/mL
same,"Cyclic AMP produced (pmol/mL), TSH 3 ng/mL",[7],58.3 pmol/mL
same,"Mutated/Wild type (%), TSH 0.01 ng/mL",[7],308%
same,"Mutated/Wild type (%), TSH 0.03 ng/mL",[7],147%
same,"Mutated/Wild type (%), TSH 0.1 ng/mL",[7],118%
same,"Mutated/Wild type (%), TSH 0.3 ng/mL",[7],104%
same,"Mutated/Wild type (%), TSH 1 ng/mL",[7],76%
same,"Mutated/Wild type (%), TSH 3 ng/mL",[7],75%
same,% inhibition of TSH stimulation; TSH (2); Experiment 1,[8],44%
same,% inhibition of TSH stimulation; TSH (2); Experiment 2,[8],22%
same,Cyclic AMP produced; TSH 3 ng/mL; Experiment 1,[8],166 pmol/mL
same,Cyclic AMP produced; TSH 3 ng/mL; Experiment 2,[8],74.6 pmol/mL
same,Cyclic AMP produced; TSH (2); Experiment 1,[8],92.3 pmol/mL
same,Cyclic AMP produced; TSH (2); Experiment 2,[8],57.9 pmol/mL
same,Mutated/wild type (%) of cyclic AMP produced; TSH 3 ng/mL; Experiment 1,[8],108%
same,Mutated/wild type (%) of cyclic AMP produced; TSH 3 ng/mL; Experiment 2,[8],125%
same,Mutated/wild type (%) of cyclic AMP produced; TSH (2); Experiment 1,[8],58%
same,Mutated/wild type (%) of cyclic AMP produced; TSH (2); Experiment 2,[8],94%
same,"Cyclic AMP produced (mean of duplicate), TSH 3 ng/mL",[9],71.7 pmol/mL
same,"Mutated/Wild type (%) of cyclic AMP produced, TSH 0.01 ng/mL",[9],243%
same,"Mutated/Wild type (%) of cyclic AMP produced, TSH 0.03 ng/mL",[9],224%
same,"Mutated/Wild type (%) of cyclic AMP produced, TSH 0.1 ng/mL",[9],115%
same,"Mutated/Wild type (%) of cyclic AMP produced, TSH 0.3 ng/mL",[9],67%
same,"Mutated/Wild type (%) of cyclic AMP produced, TSH 1 ng/mL",[9],69%
same,Mutated/wild type (%) of cyclic AMP produced; TSH 3 ng/mL,[9],66%
same,"% inhibition of TSH stimulation; TSH (2), run at the end of assay; Experiment 1",[10],12%
same,"% inhibition of TSH stimulation; TSH (2), run at the end of assay; Experiment 2",[10],13%
same,"Mutated/Wild type (%) of cyclic AMP produced, TSH 0.01 ng/mL",[10],358%
same,"Mutated/Wild type (%) of cyclic AMP produced, TSH 0.03 ng/mL",[10],178%
same,"Mutated/Wild type (%) of cyclic AMP produced, TSH 0.1 ng/mL",[10],201%
same,"Mutated/Wild type (%) of cyclic AMP produced, TSH 0.3 ng/mL",[10],96%
same,"Mutated/Wild type (%) of cyclic AMP produced, TSH 1 ng/mL",[10],77%
same,Mutated/wild type (%) of cyclic AMP produced; TSH 3 ng/mL,[10],83%
same,Mutated/wild type (%) of cyclic AMP produced; TSH 3 ng/mL; Experiment 1,[10],57%
same,Mutated/wild type (%) of cyclic AMP produced; TSH 3 ng/mL; Experiment 2,[10],81%
same,"Mutated/wild type (%) of cyclic AMP produced; TSH (2) 3 ng/mL, run at the end of assay; Experiment 1",[10],54%
same,"Mutated/wild type (%) of cyclic AMP produced; TSH (2) 3 ng/mL, run at the end of assay; Experiment 2",[10],69%
same,"Mutated/Wild type (%) of cyclic AMP produced, TSH 0.01 ng/mL",[11],171%
same,"Mutated/Wild type (%) of cyclic AMP produced, TSH 0.03 ng/mL",[11],128%
same,"Mutated/Wild type (%) of cyclic AMP produced, TSH 0.1 ng/mL",[11],65%
same,"Mutated/Wild type (%) of cyclic AMP produced, TSH 0.3 ng/mL",[11],64%
same,"Mutated/Wild type (%) of cyclic AMP produced, TSH 1 ng/mL",[11],45%
B1,Inhibition of binding (%),[12],2.8%
same,% inhibition of TSH-biotin binding,[13],7.5%
